According to PMC12162218:

Target: Cat1-His6 (CRISPR-associated TIR protein 1, homolog MCI0612855.1)
Experiment: SEC-MALS; Cat1-His6 with NAD+ (1:10 molar ratio), no cA4; Superose 6 10/300 increase; 25 mM MES pH 6, 200 mM NaCl, 2 mM β-mercaptoethanol, 5 % glycerol

stoichiometry N: 2
Substance: Cat1-His6 (CRISPR-associated TIR protein 1, homolog MCI0612855.1) (enzyme)
